Measured values: US20230050972A1 (MOMENTA PHARMACEUTICALS, published 2023)
Numbering of substitutions follows the chain as printed. “And” between values parts separate entries of the source, which are not always exact repeats. Equal entries are not always repeated.

T1: in-house generated I domain of α11β1 (human, UniProt Q9UKX5 159-349, limits assumed)
T1 construct: domain: I domain; also called human α11β1 I domain; α11β1 I Domain
T1 sequence (looked up): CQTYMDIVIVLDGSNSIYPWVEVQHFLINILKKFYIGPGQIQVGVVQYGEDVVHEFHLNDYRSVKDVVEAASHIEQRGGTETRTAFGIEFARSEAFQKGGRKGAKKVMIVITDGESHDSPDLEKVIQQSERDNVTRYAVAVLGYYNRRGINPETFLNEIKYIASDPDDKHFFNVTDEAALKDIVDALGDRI

B1: 8-P20 (antibody, V domains shown)
VH: KVMLVESGGALVKPGGSLKLSCVASGFTFSNYAMSWVRQTPEKRLEWVATISSGGYYTYYPDSVKGRFTISRDNARNTLFLQMSSLRSEDTAMFYCAREDDYGRYSYTMDYWGQGTSVTVSS
VL: DVVMTQTPLSLPVSLGDQVSISCRCSQSLVHSNGNTYLHWYLQKPGQSPQLLIYKISNRFSGVPDRFSGSGSGTDFTLKISRVEAEDLGVYFCSQSTHVPYTFGGGTELEIK
notes: mouse hybridoma IgG
B2: 8-J17 (antibody, V domains shown)
VH: QVQLQQSGAELAKPGASVKMSCKASGYTFTNYWMHWVKQRPGQGLEWIGYINPNNGYTEYNQRFKDKATLTADRSSTTAYMQLSSLTSEDSAVYYCARSDIITTDYWGQGTTLTVSS
VL: B1 VL with V19A, C25S, H31Y, Q50K, I56V, Y101W, E108K
notes: mouse hybridoma IgG
B3: 6-O17 (antibody, V domains shown)
VH: QVQLQQPGAELVKPGASVKLSCKASGYTFTSYWMHWIKQRPGQGLEWIGEINPSNGGSNYNEKFKSKATLTVDKSSSTAYMQLSSLTSEDSAVYHCKSRGYWGQGTTLTVSS
VL: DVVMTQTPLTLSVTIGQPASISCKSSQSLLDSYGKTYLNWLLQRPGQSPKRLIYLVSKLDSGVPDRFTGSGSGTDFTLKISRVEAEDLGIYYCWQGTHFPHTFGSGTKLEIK
notes: mouse hybridoma IgG
B4: 8-G15 (antibody, V domains shown)
VH: EVQLQQSGPELVKPGASVRISCKASGYTFTDYYIHWVKQKPGQGLECIGEIYPGTDNTYYSKKFRGKATLTADKSSDTAYMQLSSLTSEDSAVYFCARGDYYRGYFDVWGAGTTVTVSS
VL: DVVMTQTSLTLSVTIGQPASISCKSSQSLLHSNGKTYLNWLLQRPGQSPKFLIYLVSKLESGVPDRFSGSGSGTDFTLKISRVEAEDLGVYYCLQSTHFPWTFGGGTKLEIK
notes: mouse hybridoma IgG
B5: 9-E16 (antibody, V domains shown)
VH: EVQLQQSGPELVKPGASVKISCKASGYTFTDYYMHWVKQKPGQGLEWIGEIYPGSGNPYYNEKFKGKATLTADKSSSSAYMQLSSLTSEDSAVYFCARTSYGRVGTGFAYWGQGTLVTVSA
VL: NFVMTQTPLSLPVSLGDQASISCRSSQSLLHSNGNTYLHWYLQKPGQSPKLLIYKVSNRFSGVPDRFSGSGSGTDFTLKINRVETEDLGIYFCSQSSHVPTFGAGTKLELK
notes: mouse hybridoma IgG
B6: 7D8B10 (antibody, V domains shown)
VH: EVKLEESGGGLVQPGMSVKLSCATSGFIFSDYWMEWVRQAPGKGLEWVAEIRNKANNYATYYGKSMKGRFTISRDDSKSIVYLQVNSIRSEDTAIYYCAPNFDYWGQGVMVTVSS
VL: DVVLTQTPPTLSATIGQSVSISCRSSQSLLHSTGNTYLNWLLQRPGQPPQLLIYLVSRLESGVPNRFSASGSGTDFTLKISGIEAEDLGVYYCVQSSHTPYTFGTGTKLELK
notes: rat hybridoma mAb
B7: 8-I14 (antibody, V domains shown)
VH: EVQLQQSGPELVKPGASVKKSCKASGYTFTDYYMHWVKQKPGQGLEWIGKIYPGSGNTHYNEKFKGKATLTADKSSSTAYMQLSSLTSEDSAVYFCATNYYGYRAMNYWGQGSSVTVSS
VL: DIHLTQSPSSLSASLGERISLTCRASQDIYISLNWFQQKPDGTIKLLIYGTSSLDSGVPKRFSGSRSGSDYSLTISSLESEDFADYYCLQYASSPYTFGGGTKLEIK
notes: mouse hybridoma IgG; also called 8-l14; 8114
B8: 9-G05 (antibody, V domains shown)
VH: EVQLQQSGPELVKPGASVKIPCKASGYTFPDYNMDWVKQSHGKSLEWIGYINPDNGGTIYNQKFKGKATLTVDKSSSTAYMELRSLTSEDTAVYYCARLDSSGYGYYAMDYWGQGTSVTVSS
VL: DIVLTQSPASLAVSLGQRATISCRASESVDNYGISFMHWYQQKPGQPPKLLIYRASNLDSEIPARFSGSGSRTDFTLTIDPVETDDVATYYCQQSYKDPRTFGGGTKLEIK
notes: mouse hybridoma IgG
B9: 7-H14 (antibody, V domains shown)
VH: QVQLQQPGAELVRPGASVKLSCKPSGYTFTSYWMNWVKQRPGQGLEWIGMIDPSDSETHYNQMFKDKATLTVDKSSNTAYMQLSSLTSEDSAVYYCAQIYYAYDKAYWGQGTLVTVSA
VL: DIVMSQSPSSLAVSVGEKVTMSCKSSQSLLYSSHQKNYLAWYQQKPGQSPKLLIYWASTRESGVPDRFTGSGSGTDFSLTISSVKAEDLAVYYCQEYYSWTFGGGTKLEIK
notes: mouse hybridoma IgG

Experiments:
[1] = target: T1, in-house generated I domain of α11β1; experiment: ELISA on the human α11β1 I domain
[2] = target: T2, human α11β1 expressed on the surface of CHO-K1 cells (human, UniProt Q9UKX5 23-1188); experiment: FACS on CHO-K1 hu α11β1 cells, estimated EC50
Experimental: (§1) 200,000 cells (wild-type CHO-K1 cells or CHO-K1 cells expressing human α11) were incubated with each antibody at desired concentrations in FACS buffer for 30 min at 4° C. Then, the cells were washed with FACS buffer and incubated with secondary antibody at 1:100 dilution for 30 minutes at 4° C. Cells were then washed and fixed with 1% PFA in PBS for 20 minutes at room temperature; washed again and read on a cytometer in FACS buffer.
Binding EC₅₀ was estimated using data from Fluorescence-activated cell sorting (FACS) performed with CHO-K1 hu α11β1 cells. Four out of six mAbs tested had EC₅₀ results in the low nanomolar range (8-P20, 8-G15, 8-J17, 8-l14), while the remaining two mAbs were not as potent (9-G05 and 9-E16; both I domain binders).

recombinant human α11β1 [3] = target: T3, recombinant human α11β1 (human, UniProt Q9UKX5 23-1141; P05556 21-728); experiment: ELISA, plate coated with recombinant human α11β1
T3 construct: Coated in ELISA; ELISA and SPR material treated as one molecule; also called HIS-tagged human α11β1; integrin alpha 11 beta 1
Experimental: (§2) 0.25 μg/mL of target antigen (recombinant human or mouse α11β1) was plated in a 96-well plate over night at 4° C. Plates were washed (PBS with 0.1% Tween-20), blocked (PBS with 2% BSA and 0.05% Tween-20) for 1 hour at room temperature and incubated with a range of antibody concentrations for 1 hour at room temperature. Subsequently, plates were washed and incubated with biotinylated anti-rabbit/mouse/human IgG in a 1:1000 dilution buffer and incubated for 1 hour at room temperature. After washing the plates, Streptavidin HRP was added at 1:200 in dilution buffer and incubated for 1 hour at room temperature. Ultra TMB ELISA substrate solution was added and the plates incubated for 5 minutes on a plate shaker. The reaction was stopped by adding stop solution to each well and plates were read at 450 nm.

recombinant mouse α11β1 [4] = target: T4, recombinant mouse α11β1 (mouse, UniProt P61622 23-1141; P09055 21-728, limits assumed); experiment: ELISA, plate coated with recombinant mouse α11β1
T4 construct: also called murine α11β1
Experimental: as §2

[5] = target: T5, α11β1 on human myofibroblasts (MF) (human, UniProt Q9UKX5 23-1188; P05556 21-798); experiment: FACS on human myofibroblasts
T5 construct: whole, on cells
Experimental: Human Pulmonary Fibroblasts (ScienCell) were cultured in complete Fibroblast Growth Medium (ScienCell) until 80% confluent in T-150 flasks. Cells were washed and harvested using Accutase. Cells were seeded into T-150 flasks at 7,500 cells/cm² in complete FGF and cultured for 72 hours. Cells were then washed and starved in serum reduced medium for 24 hours. After starvation, cells were treated with TGFβ-1 (R&D Systems) for 72 hours. Cells were harvested using Accutase and seeded in 96-well conical bottom plates. Cells were blocked with Heat Inactived Fetal Bovine Serum (Gibco) for 30 minutes at 4° C. Cells were then incubated with anti-α11 antibodies at the doses described in each figure for 30 minutes at 4° C. A human anti-α11 antibody (Creative BioLabs) was included as a positive control as well as the appropriate IgG isotype negative controls. Cells were washed twice and incubated with PE conjugated secondary antibodies specific to the IgG class of the anti-α11 antibodies being tested for 30 minutes at 4° C. Cells were washed twice and fixed in 1% PFA for 30 minutes. Cells were acquired on a FACS Verse […]. Data were analyzed by gating on single cells and determining the geometric Mean Fluorescence Intensity (gMFI) in the PE channel for each sample.

[6] = target: T1, in-house generated I domain of α11β1; experiment: binding to isolated I domain
recombinant human α11β1 [7] = target: T3, recombinant human α11β1; experiment: ELISA on recombinant human α11β1
Experimental: as §2

recombinant mouse α11β1 [8] = target: T4, recombinant mouse α11β1; experiment: ELISA on recombinant mouse α11β1
Experimental: as §2

[9] = target: T2, human α11β1 expressed on the surface of …; experiment: FACS titration on Human CHO-α11 cells
Experimental: as §1

recombinant human α11β1 [10] = target: T3, recombinant human α11β1; experiment: SPR, HIS-tagged human α11β1 captured by anti-HIS, antibody as analyte, single-cycle kinetics
Experimental: (§3) The affinity of antibodies for human α11β1 was measured by surface plasmon resonance assay (SPR). Affinity was measured at pH 7.6 and 25° C. with a Biacore T200 instrument. Anti-HIS antibody was immobilized on the SPR sensor surface using EDC/NHS covalent attachment. HIS-tagged human α11β1 was captured on the sensor surface and a single-cycle kinetics assay was used. Increasing concentrations of test antibody were injected in series over the sensor-bound α11β1. Dissociation was monitored for 1000 seconds. A sensor surface with only anti-HIS antibody and a series of blank injections were used to double-reference subtract the data. A 1:1 Langmuir model was fit to the data to estimate the kinetic association and dissociation constants. The affinity (equilibrium dissociation constant) of the interaction was calculated by dividing the kinetic dissociation constant by the kinetic association constant. Between injection cycles α11β1 and bound antibody were removed with an injection of 10 mM glycine at pH 1.5.
The binding affinity of antibodies for the α11β1 Headpiece and α11β1 I Domain as measured by SPR is shown in FIG. 10A and FIG. 10B, respectively.

recombinant human α11β1 [11] = target: T3, recombinant human α11β1; experiment: SPR (Biacore T200), HIS-tagged human α11β1 captured on anti-HIS, single-cycle kinetics, 1:1 Langmuir fit
Experimental: as §3

T4 sequence (P61622 23-1141 limits assumed, chain 1 of 2): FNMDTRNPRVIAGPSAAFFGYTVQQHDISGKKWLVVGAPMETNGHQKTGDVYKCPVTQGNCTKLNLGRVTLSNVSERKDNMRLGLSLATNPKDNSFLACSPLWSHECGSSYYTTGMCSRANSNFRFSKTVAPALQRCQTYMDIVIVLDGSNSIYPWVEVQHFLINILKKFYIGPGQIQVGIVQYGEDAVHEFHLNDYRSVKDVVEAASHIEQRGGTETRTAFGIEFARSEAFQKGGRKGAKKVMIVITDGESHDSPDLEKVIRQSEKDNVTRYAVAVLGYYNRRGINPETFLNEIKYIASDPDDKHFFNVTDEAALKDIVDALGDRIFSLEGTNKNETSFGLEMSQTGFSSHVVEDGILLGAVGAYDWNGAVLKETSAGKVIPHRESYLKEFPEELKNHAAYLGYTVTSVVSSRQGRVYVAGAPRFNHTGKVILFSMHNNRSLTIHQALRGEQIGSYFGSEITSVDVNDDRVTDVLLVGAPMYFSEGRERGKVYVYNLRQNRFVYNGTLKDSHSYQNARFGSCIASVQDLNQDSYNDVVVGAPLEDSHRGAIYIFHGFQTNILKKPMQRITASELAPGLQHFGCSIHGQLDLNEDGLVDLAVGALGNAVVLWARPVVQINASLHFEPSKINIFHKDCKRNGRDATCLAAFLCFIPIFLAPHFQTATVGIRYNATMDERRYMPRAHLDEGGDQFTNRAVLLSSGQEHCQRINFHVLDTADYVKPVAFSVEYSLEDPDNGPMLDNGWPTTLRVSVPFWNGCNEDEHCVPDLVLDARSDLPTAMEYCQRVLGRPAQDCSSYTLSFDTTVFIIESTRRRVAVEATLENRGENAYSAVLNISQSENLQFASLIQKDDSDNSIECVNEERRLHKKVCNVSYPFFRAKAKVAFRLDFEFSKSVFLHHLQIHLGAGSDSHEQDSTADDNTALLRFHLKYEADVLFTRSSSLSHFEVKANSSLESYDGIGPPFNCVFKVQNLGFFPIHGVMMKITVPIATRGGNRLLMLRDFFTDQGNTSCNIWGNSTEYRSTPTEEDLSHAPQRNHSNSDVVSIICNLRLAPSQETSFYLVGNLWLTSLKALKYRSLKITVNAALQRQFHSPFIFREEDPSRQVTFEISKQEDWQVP
T4 sequence (P09055 21-728 limits assumed, chain 2 of 2): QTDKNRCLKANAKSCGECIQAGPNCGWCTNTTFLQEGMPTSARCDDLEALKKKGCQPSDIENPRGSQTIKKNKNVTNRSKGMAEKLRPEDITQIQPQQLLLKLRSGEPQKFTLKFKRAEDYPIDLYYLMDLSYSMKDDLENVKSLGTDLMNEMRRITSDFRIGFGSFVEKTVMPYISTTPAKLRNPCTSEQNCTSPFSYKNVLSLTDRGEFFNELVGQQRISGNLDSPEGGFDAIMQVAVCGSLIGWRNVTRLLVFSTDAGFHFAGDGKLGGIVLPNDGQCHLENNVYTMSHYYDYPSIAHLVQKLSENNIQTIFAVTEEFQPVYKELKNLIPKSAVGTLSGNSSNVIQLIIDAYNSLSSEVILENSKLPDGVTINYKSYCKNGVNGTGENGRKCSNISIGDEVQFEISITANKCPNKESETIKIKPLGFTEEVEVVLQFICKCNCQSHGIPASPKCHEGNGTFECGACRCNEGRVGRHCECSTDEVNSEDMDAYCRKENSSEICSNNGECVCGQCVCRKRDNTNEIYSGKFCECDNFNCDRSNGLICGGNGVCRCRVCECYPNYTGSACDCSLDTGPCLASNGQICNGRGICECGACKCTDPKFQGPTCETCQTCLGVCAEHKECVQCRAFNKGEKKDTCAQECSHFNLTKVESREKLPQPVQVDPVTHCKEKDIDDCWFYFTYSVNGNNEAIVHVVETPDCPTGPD
T3 sequence (Q9UKX5 23-1141 limits assumed, chain 1 of 2): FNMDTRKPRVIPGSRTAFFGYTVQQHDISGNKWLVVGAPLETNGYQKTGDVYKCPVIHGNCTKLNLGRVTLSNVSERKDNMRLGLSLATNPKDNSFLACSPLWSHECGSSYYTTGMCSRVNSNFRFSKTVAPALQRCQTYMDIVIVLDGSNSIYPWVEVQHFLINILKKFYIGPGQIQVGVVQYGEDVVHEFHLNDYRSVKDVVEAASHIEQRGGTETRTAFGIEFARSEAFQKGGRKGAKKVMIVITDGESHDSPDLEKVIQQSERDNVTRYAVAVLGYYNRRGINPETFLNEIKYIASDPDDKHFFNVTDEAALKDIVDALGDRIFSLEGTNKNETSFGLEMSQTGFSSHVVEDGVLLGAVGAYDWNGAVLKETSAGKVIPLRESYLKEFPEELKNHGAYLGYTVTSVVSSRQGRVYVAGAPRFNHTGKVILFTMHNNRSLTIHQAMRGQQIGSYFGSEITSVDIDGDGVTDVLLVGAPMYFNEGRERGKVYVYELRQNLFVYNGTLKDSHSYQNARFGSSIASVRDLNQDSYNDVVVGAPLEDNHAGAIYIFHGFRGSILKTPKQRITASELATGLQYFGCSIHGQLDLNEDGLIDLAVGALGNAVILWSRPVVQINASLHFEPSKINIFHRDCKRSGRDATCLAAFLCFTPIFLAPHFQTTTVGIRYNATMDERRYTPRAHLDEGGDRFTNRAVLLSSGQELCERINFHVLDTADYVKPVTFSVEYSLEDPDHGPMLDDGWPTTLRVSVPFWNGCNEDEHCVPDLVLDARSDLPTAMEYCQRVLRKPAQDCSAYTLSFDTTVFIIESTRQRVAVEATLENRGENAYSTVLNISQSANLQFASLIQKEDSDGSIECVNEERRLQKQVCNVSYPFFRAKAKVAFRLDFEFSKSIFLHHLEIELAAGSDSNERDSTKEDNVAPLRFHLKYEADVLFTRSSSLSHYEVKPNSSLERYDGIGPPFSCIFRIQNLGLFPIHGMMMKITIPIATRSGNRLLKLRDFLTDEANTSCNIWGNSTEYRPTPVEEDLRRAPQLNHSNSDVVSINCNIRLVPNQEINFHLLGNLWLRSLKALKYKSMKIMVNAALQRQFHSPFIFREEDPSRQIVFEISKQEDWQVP
T3 sequence (P05556 21-728 limits assumed, chain 2 of 2): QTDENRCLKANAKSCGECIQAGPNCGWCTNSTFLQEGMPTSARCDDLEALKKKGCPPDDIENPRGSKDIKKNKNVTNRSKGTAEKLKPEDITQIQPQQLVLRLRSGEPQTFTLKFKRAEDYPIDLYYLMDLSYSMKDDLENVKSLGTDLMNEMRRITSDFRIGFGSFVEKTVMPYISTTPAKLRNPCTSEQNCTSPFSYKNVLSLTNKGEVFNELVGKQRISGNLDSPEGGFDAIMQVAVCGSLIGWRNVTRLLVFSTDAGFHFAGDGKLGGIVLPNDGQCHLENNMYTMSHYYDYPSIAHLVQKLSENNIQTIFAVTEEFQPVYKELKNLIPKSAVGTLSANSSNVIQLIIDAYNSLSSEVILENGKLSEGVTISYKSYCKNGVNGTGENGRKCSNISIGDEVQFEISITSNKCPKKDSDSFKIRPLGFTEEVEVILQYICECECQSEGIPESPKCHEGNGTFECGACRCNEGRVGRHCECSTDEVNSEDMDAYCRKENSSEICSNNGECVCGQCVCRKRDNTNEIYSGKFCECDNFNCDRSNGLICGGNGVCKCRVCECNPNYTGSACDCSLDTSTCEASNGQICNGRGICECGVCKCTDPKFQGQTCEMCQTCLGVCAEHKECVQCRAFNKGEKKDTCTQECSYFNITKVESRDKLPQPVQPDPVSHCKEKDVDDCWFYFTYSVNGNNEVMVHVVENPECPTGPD
T2 sequence (Q9UKX5 23-1188): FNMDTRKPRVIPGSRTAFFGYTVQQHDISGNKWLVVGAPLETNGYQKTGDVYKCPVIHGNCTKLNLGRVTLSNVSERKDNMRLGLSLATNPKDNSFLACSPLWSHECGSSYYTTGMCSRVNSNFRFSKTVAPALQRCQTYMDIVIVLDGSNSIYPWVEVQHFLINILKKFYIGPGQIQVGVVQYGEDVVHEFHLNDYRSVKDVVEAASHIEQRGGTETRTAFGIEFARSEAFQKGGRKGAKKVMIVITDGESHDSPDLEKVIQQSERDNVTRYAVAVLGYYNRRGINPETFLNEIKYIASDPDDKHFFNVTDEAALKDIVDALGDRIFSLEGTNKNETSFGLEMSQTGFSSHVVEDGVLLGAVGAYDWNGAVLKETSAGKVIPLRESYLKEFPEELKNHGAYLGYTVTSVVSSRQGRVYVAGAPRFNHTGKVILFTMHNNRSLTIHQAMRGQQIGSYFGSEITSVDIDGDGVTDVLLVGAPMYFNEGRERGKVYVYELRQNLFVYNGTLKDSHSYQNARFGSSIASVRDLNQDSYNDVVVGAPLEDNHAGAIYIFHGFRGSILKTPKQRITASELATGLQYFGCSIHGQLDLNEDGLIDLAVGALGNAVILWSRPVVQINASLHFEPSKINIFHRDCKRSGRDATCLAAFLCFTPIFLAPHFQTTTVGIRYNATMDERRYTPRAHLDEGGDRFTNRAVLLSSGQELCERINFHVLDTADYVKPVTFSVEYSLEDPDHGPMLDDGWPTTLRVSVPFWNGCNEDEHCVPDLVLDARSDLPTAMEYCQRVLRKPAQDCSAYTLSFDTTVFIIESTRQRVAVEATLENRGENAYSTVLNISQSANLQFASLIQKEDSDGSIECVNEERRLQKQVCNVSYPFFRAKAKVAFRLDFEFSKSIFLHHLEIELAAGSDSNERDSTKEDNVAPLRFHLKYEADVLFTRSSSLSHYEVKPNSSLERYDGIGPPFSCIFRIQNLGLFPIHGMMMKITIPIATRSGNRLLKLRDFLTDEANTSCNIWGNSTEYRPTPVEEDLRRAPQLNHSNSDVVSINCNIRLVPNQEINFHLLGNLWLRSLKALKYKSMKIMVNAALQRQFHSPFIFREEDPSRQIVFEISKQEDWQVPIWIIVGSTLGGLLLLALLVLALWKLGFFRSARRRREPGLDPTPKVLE

| Binder | binding result [1] | EC50 [2] | EC50 (read off the curve) (recombinant human α11β1 [3]) [ng/mL] | binding result (recombinant mouse α11β1 [4]) | binding result [5] | binding result [6] | binding result (recombinant human α11β1 [7]) | binding result (recombinant mouse α11β1 [8]) | EC50 (read off the curve) (recombinant mouse α11β1 [4]) [ng/mL] | other results |
| --- | --- | --- | --- | --- | --- | --- | --- | --- | --- | --- |
| B1 | no binding (tested: 1 µg/mL) | 0.12 µg/mL and 0.8 nM | ~0.03 | no binding (tested: 1 µg/mL) |  |  |  |  |  |  |
| B2 | no binding (tested: 1 µg/mL) | 0.33 µg/mL and 2.2 nM | ~0.1 | no binding (tested: 1 µg/mL) |  |  |  |  |  |  |
| B3 |  |  |  |  | binds | no binding | binds | binds |  |  |
| B4 | no binding (tested: 1 µg/mL) | 0.22 µg/mL and 1.5 nM | ~0.03 | no binding (tested: 1 µg/mL) |  |  |  |  |  |  |
| B5 |  | 42.8 µg/mL and 285 nM | ~1 |  |  |  |  |  | ~6 |  |
| B6 |  |  |  |  | binds | no binding | binds | no binding |  |  |
| B7 | no binding (tested: 1 µg/mL) | 1.22 µg/mL and 8.1 nM | ~0.2 |  |  |  |  |  | ~6 |  |
| B8 |  | 21 µg/mL and 140 nM | ~10 |  |  |  |  |  | ~30 | EC50 (read off the curve) [1]: ~0.3 ng/mL; EC50 [9]: 187 nM; Kd (recombinant human α11β1 [10]): 2.85 nM; koff (recombinant human α11β1 [11]): 4.99e-05 s⁻¹; kon (recombinant human α11β1 [11]): 17500 M⁻¹ s⁻¹ |
| B9 |  |  |  |  | binds | no binding | binds | binds |  |  |
